Patent US8383806B2, “Method of reversing carboplatin resistance by inhibition of HGFIN” (University of Medicine and Dentistry of New Jersey, priority 2000, dated 2013)

Tests used:
[1] = tested on: cancer stem cells from breast cancer cell lines; experiment: Drug exposure of breast cancer stem cell clones; type: cell-based; details: selected clones
Experimental: Breast cancer cells are cultured in the presence of each or combinations of the anti-cancer agents 5-FU, Methothrexate, and Cytarabine. […] Cells are passaged at least 5 times in high concentrations of anti-cancer drugs. […] Breast cancer cells were subjected to rounds of exposure to 5-fluorouracil (5-FU), methotrexate, and cytarabine.

HGFIN = molecular target: T1, HGFIN (Homo sapiens, UniProt Q14956); experiment: SELDI ProteinChip (PS1) HGFIN-SP interaction; type: binding; details: HGFIN covalently bound to PS1 chip, SP added
T1 construct: made in house
T1 sequence (Q14956 23-560 isoform Q14956-2): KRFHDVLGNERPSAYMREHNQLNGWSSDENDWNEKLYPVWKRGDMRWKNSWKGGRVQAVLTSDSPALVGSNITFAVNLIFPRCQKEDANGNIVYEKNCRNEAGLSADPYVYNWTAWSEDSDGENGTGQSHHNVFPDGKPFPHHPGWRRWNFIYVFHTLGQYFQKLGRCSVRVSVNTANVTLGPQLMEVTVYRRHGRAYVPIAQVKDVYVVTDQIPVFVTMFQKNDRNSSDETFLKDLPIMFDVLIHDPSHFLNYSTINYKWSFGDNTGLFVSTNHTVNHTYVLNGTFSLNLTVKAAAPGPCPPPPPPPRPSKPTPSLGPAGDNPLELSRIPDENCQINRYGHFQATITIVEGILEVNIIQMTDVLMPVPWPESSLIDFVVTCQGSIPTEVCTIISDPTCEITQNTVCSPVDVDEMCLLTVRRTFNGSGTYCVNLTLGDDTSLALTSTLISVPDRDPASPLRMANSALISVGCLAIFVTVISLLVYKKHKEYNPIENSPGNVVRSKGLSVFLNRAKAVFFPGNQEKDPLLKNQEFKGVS
Experimental: Before studying the interaction between SP and HGFIN, each protein was profiled by the Surface Enhanced Laser Desorption/Ionization (SELDI) ProteinChip Array technology (Ciphergen Biosystems Inc., Fremont, Calif.). Normal phase (NP1) arrays were used for profiling and preactivated surface arrays (PS1) for HGFIN-SP interaction. For profiling studies, 2 μg of purified HGFIN or 2 μg of SP were spotted directly onto the NP1 arrays. Prior to adding of the proteins, chips were pre-wet with PBS. Arrays were incubated at room temperature until the protein was absorbed, which took approximately 5 to 10 minutes. […] Chips were immediately analyzed using linear, time-lag focusing laser desorption/ionization SELDI-time-of-flight mass spectrometer (Model PBS II). Accurate mass was determined by collecting approximately 150 averaged laser shots. […]
HGFIN-SP interaction was studied by pre-treating the PS1 chips with 50% acetonitrile for 3 minutes. […] CHCA was applied and the non-covalently bound SP was detected with the SELDI-Time of Flight Mass spectrometer as described for the profiling studies for HGFIN.
Protein-protein interactions were performed with the PS1 protein chip since this chip was determined to covalently bind HGFIN. SP was added to the chip and then detected with the SELDI system.

[2] = molecular target: T2, Fibronectin-Fragment III-C (FN-IIIC) (Homo sapiens, UniProt P02751); experiment: SELDI ProteinChip (PS1) positive control, FN-IIIC and SP; type: binding; details: FN-IIIC covalently coated
T2 construct: 20 ng fibronectin, fragment III-C (positive control); purchased Sigma (St Louis, Mo.)
T2 sequence (P02751 627-702 limits assumed): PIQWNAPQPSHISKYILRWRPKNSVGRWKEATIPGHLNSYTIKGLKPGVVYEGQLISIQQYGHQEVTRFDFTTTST
Experimental: HGFIN-SP interaction was studied by pre-treating the PS1 chips with 50% acetonitrile for 3 minutes. After this, the chips were incubated for 45 minutes with the following: 2.5 μg HGFIN (experimental sample), anti-Id2, an unrelated IgG regarding its ability to complex with SP and was therefore treated as a negative control, rabbit anti-SP (positive control) or 20 ng fibronectin, fragment III-C (positive control). The arrays were blocked for 25 minutes with 1 M ethanolamine and washed with PBS+0.5% TRITON-X (2×) and a final PBS wash step. After this the chips were washed with PBS+TRITON-X, PBS, rinsed with 5 mM HEPES and then dried. CHCA was applied and the non-covalently bound SP was detected with the SELDI-Time of Flight Mass spectrometer as described for the profiling studies for HGFIN.
Fibronectin has been reported to bind SP. Therefore, this property of fibronectin was used as a positive control for SP interaction on the SELDI system. […] Similar results were shown with another positive control: rabbit anti-SP (covalently bound) and SP. No peak was detected in two negative controls, which consisted of bovine serum albumin or an unrelated antibody (anti-Id2) covalently bound to the surface of PS1.

Row | non-covalently bound SP detected on HGFIN-coated PS1 chip (SELDI) (HGFIN) | SP detected on FN-IIIC-coated PS1 chip (SELDI) [2] | Molecule | response of cancer stem cells to the drug [1]
1 | – | – | O=c1[nH]cc(F)c(=O)[nH]1 [5-FU, 5-fluorouracil] | resistant
2 | single peak at ˜13000 Da | single peak at ˜13000 Da | Substance P [SP] | –
